From patent US20190184028A1 (Janssen / Centocor, published 2019) come the findings set out here.

Changes are numbered by the printed parent chain. In names and notes the source's numbering stands.

The target of assay [1] is T1, epidermal growth factor receptor (EGFR) (human, UniProt P00533 25-1210).
T1 construct: whole, on cells; The cell assays use human tumour lines; also called hEGFR
The assay can be described thus: table column 'Binding antigen'; no assay given.

In assay [2] the target is T1, epidermal growth factor receptor (EGFR). The assay can be described thus: flow cytometry on H292 cells. The protocol: To determine the activity of the recently created FN3 domain molecule-SPION, cell targeting assays were set-up in vitro. H292 cells were dissociated from a T-150 cell culture flask using Hank's Enzyme free dissociation buffer (Invitrogen—13150-016). The cells and dissociation buffer were incubated for 15 minutes in a cell incubator. The flask was gently tapped to dissociate any residually bound cells and the buffer and cells were transferred to a 15 mL conical tube. The cells were spun at 1,000 rcf for 2 minutes. The supernatant was gently removed with careful consideration paid to not disturbing the pelleted cells. The cell pellet left over was reconstituted in 1.5 mL of phenol-red free RPMI 1640 media with 10% FBS. It was determined that the suspension contained approximately […]. 100 μL of this suspension was added to each well of a 96-well plate. FN3 domain molecule-SPION sample concentrations are listed above. From these known concentrations, FN3 domain molecule-SPION was added to each well so that the final concentration of FN3 domain molecule-SPION with the cells was 100 μg/mL Fe. Samples were plated in triplicate and incubated for 30 minutes and then purified via 3× centrifugation at 1,000×rcf and resuspension in dPBS pH 7.2. Samples were suspended in a final volume of 300 μL and moved to a clear, flat bottom 96-well plate for analysis on the Guava HTS flow cytometer. A total of 8,000 cells were counted for each sample. Following flow, population samples were analyzed using FlowJo. Each sample was gated so that only live cells were assessed for fluorescence. Histograms were obtained wherein the black peak (the peak to the left side of the graph) is the autofluorescence obtained from unlabeled H292 cells. The blue peak (the peak to the right side of the graph) corresponds to the sample title above the histogram. 83v10, 83v12 and 83v15 are positively shifted compared to the tencon25 control or blank cells (FIGS. 1A-1D). […] All samples were normalized by subtracting the blank cell autofluorescence from the mean fluorescent intensities of each sample. […]
Background: A flow cytometer gives signals particle by particle.

The target of another assay is T2, human EpCAM (human, UniProt P16422 24-314).
T2 sequence (looked up): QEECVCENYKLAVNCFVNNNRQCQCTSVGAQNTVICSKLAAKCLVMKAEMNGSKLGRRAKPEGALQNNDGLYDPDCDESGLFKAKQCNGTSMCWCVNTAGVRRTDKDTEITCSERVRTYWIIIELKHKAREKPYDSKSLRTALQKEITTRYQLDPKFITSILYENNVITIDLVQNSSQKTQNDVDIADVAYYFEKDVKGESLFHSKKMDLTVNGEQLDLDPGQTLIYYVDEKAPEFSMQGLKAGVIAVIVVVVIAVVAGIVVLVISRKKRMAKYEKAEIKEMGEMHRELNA
Briefly: cell-based or functional assay.

B1: EEB9 PEG4-MMAF conjugate (designed binder)
chain: MLPAPKNLVVSRVTEDSARLSWTAPDAAFDSFQIYYSELLSYGEAIVLTVPGSERSYDLTGLCPGTEYTVSINGVKGGTRSWSLSAIFTTAPAPAPAPAPLPAPKNLVVSRVTEDSARLSWTAPDAAFDSFQIYYSELLSYGEAIVLTVPGSERSYDLTGLCPGTEYTVSINGVKGGTRSWSLSAIFTTAPAPAPAPAPTIDEWLLKEAKEKAIEELKKAGITSDYYFDLINKAKTVEGVNALKDEILKA
modifications: Iodoacetyl-PEG4-MMAF on cysteines; 2 MMAF after conjugation
notes: Bivalent P155R8-G3 with ABDcon12
Turning to B1, the binding result in assay [1] is on record as “binds”.

B2: EEB8 PEG4-MMAF conjugate (designed binder)
chain: B1 chain with C162K
modifications: Iodoacetyl-PEG4-MMAF on cysteine; 1 MMAF after conjugation
With B2, the binding result in assay [1] is “binds”.

B3: EEB11 PEG4-MMAF conjugate (designed binder)
chain: B1 chain with A93C
modifications: Iodoacetyl-PEG4-MMAF on cysteines; 3 MMAF after conjugation
notes: as for B1
With B3, the binding result in assay [1] is “binds”.

B4: EEB10 PEG4-MMAF conjugate (designed binder)
chain: B1 chain with A93C, A192C
modifications: Iodoacetyl-PEG4-MMAF on cysteines; 4 MMAF after conjugation
notes: as for B1
Take B4: the binding result in assay [1] was “binds”.

B5: 83v10-SPION (designed binder)
chain: MLPAPKNLVVSEVTCDSARLSWDDPWAFYESFLIQYQESEKVGEAIVLTVPGSERSYDLTGLKPGTEYTVSIYGVHNVYKDTNMRGLPLSAIFTTGGHHHHHH
modifications: Cys 15 coupled to a superparamagnetic iron oxide nanoparticle (SPION)
notes: Cysteine variant of the EGFR-targeting FN3 domain P54AR4-83v2, many copies on a nanoparticle (50:1 molar ratio in the reaction); also called 83v10 = E15C
In the case of B5, the binding result in assay [2] is reported as “binds”.

B6: 83v12-SPION (designed binder)
chain: B5 chain with C15E, R19C
modifications: Cys 19 coupled to a superparamagnetic iron oxide nanoparticle (SPION)
notes: Cysteine variant of P54AR4-83v2 on a nanoparticle; also called 83v12 = R19C
For the molecule B6, in assay [2], the binding result is “binds”.

B7: Iso124R5AB_D6_cys vcMMAF conjugate (designed binder)
chain: MLPAPKNLVVSRVTEDSARLSWHNHRPQFDSFLIQYQESEKVGEAIVLTVPGSERSYDLTGLKPGTEYTVSIYGVAIAVPWNYQSNPLSAIFTTGGHHHHHHGGC
modifications: vc-MMAF on the C-terminal cysteine (cysteine-maleimide chemistry)
Consider B7, for which, in the assay with human EpCAM, the “Cytotoxicity Assays of CDCs, A431 cells IC50 (nm)” value was found to be 59.2 nm and the “Cytotoxicity Assays of CDCs, HT-29 cells IC50 (nm)” value was found to be 38.3 nm.

B8: 83v15-SPION (designed binder)
chain: MLPAPKNLVVSEVTEDSARLSWDDPWAFYESFLIQYQESEKVGEAIVLTVPGSERSYDLTGLKPGTEYTVSIYGVHNVYKDTNMRGLPLSAIFTTGGHHHHHHC
modifications: C-terminal Cys coupled to a superparamagnetic iron oxide nanoparticle (SPION)
notes: Cysteine variant of P54AR4-83v2 on a nanoparticle; also called 83v15 = C-terminal
B8: the binding result in assay [2] was “binds”.
